# From article PMC4906247
# Experiments:
# [1] = molecular target: hDAPK2 CD + ARD BL mutant (Arg47, Arg50, Arg53, Arg54 to glutamate) (human); assay: SAXS; EMBL P12 (PETRA-III), 2.0-15.0 mg/ml, 283 K; monomer/dimer equilibrium mixture fitted (OLIGOMER)
# [2] = molecular target: calcium/calmodulin on Sepharose 4B (Sepharose 4B-CaM) (UniProt P0DP23); assay: pull-down; CaM pull-down of purified hDAPK2 variants, SDS-PAGE with Coomassie blue staining, three repetitions
# [3] = molecular target: CrAsH-tagged calmodulin, calcium-bound (Ca^2+/CrAsH-CaM) (UniProt P0DP23); assay: fluorescence polarisation; fluorescence anisotropy, purified hDAPK2 CD + ARD variants titrated against Ca2+/CrAsH-CaM; KD estimated by non-linear regression, one-site specific binding (Prism), three experiments
# [4] = molecular target: hDAPK2 CD + ARD W305D, BiFC construct (human); assay: split reporter (BiFC, NanoBiT); bimolecular fluorescence complementation in HEK293T cells, readout normalized to protein expression; endogenous Ca2+/CaM present
# [5] = molecular target: calcium/calmodulin on Sepharose 4B (Sepharose 4B-CaM) (UniProt P0DP23); assay: pull-down; CaM pull-down of hDAPK2 variants from transfected HEK293T cells on Sepharose 4B-CaM, EGTA-mediated elution, western blot, three replicates
Kd [3],Substance,other results
–,"hDAPK2 CD + ARD BL mutant (Arg47, Arg50, Arg53, Arg54 to glutamate) (domain or fragment)",percent monomer [1]: 89%; percent of the Ca2+/CaM binding of WT [2]: 46 % of WT
< 3.5 nM,"hDAPK2 CD + ARD S308A, D220K (domain or fragment)",–
< 3.5 nM,"hDAPK2 CD + ARD S308A, L226R (domain or fragment)",–
–,"hDAPK2 CD + ARD W305D, BiFC construct (domain or fragment)",fold increase of the BiFC signal [4]: > 5 fold
9700 nM,"hDAPK2 CD + ARD W305D, D220K (domain or fragment)",–
2700 nM,"hDAPK2 CD + ARD W305D, L226R (domain or fragment)",–
–,hDAPK2 W305D D220K mutant expressed in HEK293T cells (CaM pull-down from lysate) (natural protein),fold increase of Ca2+/CaM binding against hDAPK2 W305D [5]: 2 fold
